From the supplement of paper PMC10567573

B1: PHTF1 (parent)
chain: SRHLNSQVKKTTTRWCHIVRDSDS

Variants of: B1
Assay: protein stability index of a GFP-peptide fusion (GPS, HEK-293T) (PSI 1-6); higher = more stable
Conditions: c terminus: a fixed tail appended
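Also: lentivirally expressed fusions sorted by FACS into six bins by GFP to DsRed ratio, PSI derived from sequencing read proportions per bin multiplied by bin number.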

Variant | protein stability index
SRHLDSQVKKTTTRWCHIVRDSDS | 2.53
SRHLFSQVKKTTTRWCHIVRDSDS | 2.02
SRHLMSQVKKTTTRWCHIVRDSDS | 1.45
SRHLPSQVKKTTTRWCHIVRDSDS | 2.22
SRHLHSQVKKTTTRWCHIVRDSDS | 2.56
SRHLWSQVKKTTTRWCHIVRDSDS | 2.27
SRHLYSQVKKTTTRWCHIVRDSDS | 2.16
SRHLSSQVKKTTTRWCHIVRDSDS | 1.92
SRHLASQVKKTTTRWCHIVRDSDS | 2.19
SRHLTSQVKKTTTRWCHIVRDSDS | 2.38
SRHLRSQVKKTTTRWCHIVRDSDS | 3.93
SRHLCSQVKKTTTRWCHIVRDSDS | 2.33
SRHLLSQVKKTTTRWCHIVRDSDS | 1.92
SRHLISQVKKTTTRWCHIVRDSDS | 2.73
SRHLESQVKKTTTRWCHIVRDSDS | 1.59
SRHLQSQVKKTTTRWCHIVRDSDS | 1.92
SRHLGSQVKKTTTRWCHIVRDSDS | 2.79
SRHLKSQVKKTTTRWCHIVRDSDS | 1.8
SRHLVSQVKKTTTRWCHIVRDSDS | 1.29
HRHLNSQVKKTTTRWCHIVRDSDS | 1.46
MRHLNSQVKKTTTRWCHIVRDSDS | 2.52
VRHLNSQVKKTTTRWCHIVRDSDS | 1.84
FRHLNSQVKKTTTRWCHIVRDSDS | 1.76
TRHLNSQVKKTTTRWCHIVRDSDS | 2.09

Variant | protein stability index
NRHLNSQVKKTTTRWCHIVRDSDS | 2.51
DRHLNSQVKKTTTRWCHIVRDSDS | 3.06
RRHLNSQVKKTTTRWCHIVRDSDS | 2.51
CRHLNSQVKKTTTRWCHIVRDSDS | 2.07
PRHLNSQVKKTTTRWCHIVRDSDS | 2.47
WRHLNSQVKKTTTRWCHIVRDSDS | 2.1
IRHLNSQVKKTTTRWCHIVRDSDS | 1.23
KRHLNSQVKKTTTRWCHIVRDSDS | 2.26
GRHLNSQVKKTTTRWCHIVRDSDS | 2.06
ERHLNSQVKKTTTRWCHIVRDSDS | 1.8
ARHLNSQVKKTTTRWCHIVRDSDS | 2.52
QRHLNSQVKKTTTRWCHIVRDSDS | 2.38
YRHLNSQVKKTTTRWCHIVRDSDS | 2.25
LRHLNSQVKKTTTRWCHIVRDSDS | 1.51
SRALNSQVKKTTTRWCHIVRDSDS | 2.23
SRMLNSQVKKTTTRWCHIVRDSDS | 2.15
SRVLNSQVKKTTTRWCHIVRDSDS | 2.36
SRQLNSQVKKTTTRWCHIVRDSDS | 2.28
SRCLNSQVKKTTTRWCHIVRDSDS | 1.95
SRLLNSQVKKTTTRWCHIVRDSDS | 2.08
SRFLNSQVKKTTTRWCHIVRDSDS | 2.77
SRGLNSQVKKTTTRWCHIVRDSDS | 2.21
SRKLNSQVKKTTTRWCHIVRDSDS | 2.02
SRNLNSQVKKTTTRWCHIVRDSDS | 1.69

Variant | protein stability index
SRSLNSQVKKTTTRWCHIVRDSDS | 1.5
SRELNSQVKKTTTRWCHIVRDSDS | 2.52
SRDLNSQVKKTTTRWCHIVRDSDS | 1.58
SRPLNSQVKKTTTRWCHIVRDSDS | 1.64
SRTLNSQVKKTTTRWCHIVRDSDS | 2.23
SRWLNSQVKKTTTRWCHIVRDSDS | 1.53
SRILNSQVKKTTTRWCHIVRDSDS | 1.25
SRRLNSQVKKTTTRWCHIVRDSDS | 1.79
SRHLNRQVKKTTTRWCHIVRDSDS | 2.17
SRHLNTQVKKTTTRWCHIVRDSDS | 1.83
SRHLNAQVKKTTTRWCHIVRDSDS | 2.29
SRHLNCQVKKTTTRWCHIVRDSDS | 1.7
SRHLNWQVKKTTTRWCHIVRDSDS | 2.5
SRHLNIQVKKTTTRWCHIVRDSDS | 2.22
SRHLNGQVKKTTTRWCHIVRDSDS | 1.98
SRHLNQQVKKTTTRWCHIVRDSDS | 2.61
SRHLNNQVKKTTTRWCHIVRDSDS | 2.44
SRHLNPQVKKTTTRWCHIVRDSDS | 3.03
SRHLNFQVKKTTTRWCHIVRDSDS | 1.45
SRHLNYQVKKTTTRWCHIVRDSDS | 2.86
SRHLNHQVKKTTTRWCHIVRDSDS | 2.29
SRHLNVQVKKTTTRWCHIVRDSDS | 1.94
SRHLNKQVKKTTTRWCHIVRDSDS | 2.38
SRHLNEQVKKTTTRWCHIVRDSDS | 2.31

Variant | protein stability index
SRHLNDQVKKTTTRWCHIVRDSDS | 2.88
SRHLNLQVKKTTTRWCHIVRDSDS | 1.68
SRHLNMQVKKTTTRWCHIVRDSDS | 1.93
SRHLNSQHKKTTTRWCHIVRDSDS | 2.22
SRHLNSQMKKTTTRWCHIVRDSDS | 2.08
SRHLNSQAKKTTTRWCHIVRDSDS | 2.26
SRHLNSQLKKTTTRWCHIVRDSDS | 2.07
SRHLNSQQKKTTTRWCHIVRDSDS | 1.98
SRHLNSQSKKTTTRWCHIVRDSDS | 2.61
SRHLNSQKKKTTTRWCHIVRDSDS | 1.79
SRHLNSQCKKTTTRWCHIVRDSDS | 2.6
SRHLNSQDKKTTTRWCHIVRDSDS | 2.06
SRHLNSQGKKTTTRWCHIVRDSDS | 2.57
SRHLNSQIKKTTTRWCHIVRDSDS | 2.35
SRHLNSQNKKTTTRWCHIVRDSDS | 1.78
SRHLNSQFKKTTTRWCHIVRDSDS | 2.57
SRHLNSQWKKTTTRWCHIVRDSDS | 1.34
SRHLNSQYKKTTTRWCHIVRDSDS | 1.57
SRHLNSQEKKTTTRWCHIVRDSDS | 2.79
SRHLNSQPKKTTTRWCHIVRDSDS | 2.18
SRHLNSQTKKTTTRWCHIVRDSDS | 2.1
SRHLNSQRKKTTTRWCHIVRDSDS | 1.78
SRHVNSQVKKTTTRWCHIVRDSDS | 2.03
SRHGNSQVKKTTTRWCHIVRDSDS | 1.8

Variant | protein stability index
SRHPNSQVKKTTTRWCHIVRDSDS | 2.44
SRHWNSQVKKTTTRWCHIVRDSDS | 2.25
SRHFNSQVKKTTTRWCHIVRDSDS | 3.09
SRHINSQVKKTTTRWCHIVRDSDS | 2.75
SRHNNSQVKKTTTRWCHIVRDSDS | 2.05
SRHQNSQVKKTTTRWCHIVRDSDS | 2.12
SRHANSQVKKTTTRWCHIVRDSDS | 2.58
SRHMNSQVKKTTTRWCHIVRDSDS | 1.76
SRHYNSQVKKTTTRWCHIVRDSDS | 1.76
SRHHNSQVKKTTTRWCHIVRDSDS | 2.15
SRHRNSQVKKTTTRWCHIVRDSDS | 1.95
SRHKNSQVKKTTTRWCHIVRDSDS | 2.56
SRHTNSQVKKTTTRWCHIVRDSDS | 2.06
SRHSNSQVKKTTTRWCHIVRDSDS | 2.29
SRHDNSQVKKTTTRWCHIVRDSDS | 1.99
SRHENSQVKKTTTRWCHIVRDSDS | 2.56
SRHLNSTVKKTTTRWCHIVRDSDS | 2.82
SRHLNSKVKKTTTRWCHIVRDSDS | 2.45
SRHLNSVVKKTTTRWCHIVRDSDS | 1.4
SRHLNSFVKKTTTRWCHIVRDSDS | 1.22
SRHLNSEVKKTTTRWCHIVRDSDS | 2.4
SRHLNSWVKKTTTRWCHIVRDSDS | 2.84
SRHLNSIVKKTTTRWCHIVRDSDS | 2.17
SRHLNSYVKKTTTRWCHIVRDSDS | 1.68

Variant | protein stability index
SRHLNSNVKKTTTRWCHIVRDSDS | 1.78
SRHLNSPVKKTTTRWCHIVRDSDS | 2.69
SRHLNSGVKKTTTRWCHIVRDSDS | 1.89
SRHLNSLVKKTTTRWCHIVRDSDS | 1.84
SRHLNSAVKKTTTRWCHIVRDSDS | 2.6
SRHLNSRVKKTTTRWCHIVRDSDS | 2
SRHLNSSVKKTTTRWCHIVRDSDS | 2.8
SRHLNSMVKKTTTRWCHIVRDSDS | 1.73
SRHLNSCVKKTTTRWCHIVRDSDS | 2.08
SRHLNSDVKKTTTRWCHIVRDSDS | 2.65
SRHLNSHVKKTTTRWCHIVRDSDS | 3.08
SRHLNSQVMKTTTRWCHIVRDSDS | 2.37
SRHLNSQVLKTTTRWCHIVRDSDS | 2.21
SRHLNSQVPKTTTRWCHIVRDSDS | 2.71
SRHLNSQVQKTTTRWCHIVRDSDS | 2.02
SRHLNSQVYKTTTRWCHIVRDSDS | 1.68
SRHLNSQVNKTTTRWCHIVRDSDS | 2.35
SRHLNSQVFKTTTRWCHIVRDSDS | 1.83
SRHLNSQVAKTTTRWCHIVRDSDS | 2.48
SRHLNSQVIKTTTRWCHIVRDSDS | 1.97
SRHLNSQVGKTTTRWCHIVRDSDS | 2.55
SRHLNSQVVKTTTRWCHIVRDSDS | 3.18
SRHLNSQVRKTTTRWCHIVRDSDS | 2.16
SRHLNSQVSKTTTRWCHIVRDSDS | 2.26

Variant | protein stability index
SRHLNSQVTKTTTRWCHIVRDSDS | 1.83
SRHLNSQVCKTTTRWCHIVRDSDS | 2.13
SRHLNSQVEKTTTRWCHIVRDSDS | 2.33
SRHLNSQVWKTTTRWCHIVRDSDS | 1.85
SRHLNSQVHKTTTRWCHIVRDSDS | 1.81
SRHLNSQVDKTTTRWCHIVRDSDS | 2.23
SPHLNSQVKKTTTRWCHIVRDSDS | 1.89
SGHLNSQVKKTTTRWCHIVRDSDS | 1.69
SHHLNSQVKKTTTRWCHIVRDSDS | 1.96
SWHLNSQVKKTTTRWCHIVRDSDS | 2.08
SMHLNSQVKKTTTRWCHIVRDSDS | 2.13
SQHLNSQVKKTTTRWCHIVRDSDS | 2.4
SDHLNSQVKKTTTRWCHIVRDSDS | 2.3
SSHLNSQVKKTTTRWCHIVRDSDS | 2.23
SNHLNSQVKKTTTRWCHIVRDSDS | 1.87
SFHLNSQVKKTTTRWCHIVRDSDS | 2.56
SKHLNSQVKKTTTRWCHIVRDSDS | 2.53
SAHLNSQVKKTTTRWCHIVRDSDS | 2.38
SIHLNSQVKKTTTRWCHIVRDSDS | 2.2
SYHLNSQVKKTTTRWCHIVRDSDS | 2
SVHLNSQVKKTTTRWCHIVRDSDS | 1.87
SEHLNSQVKKTTTRWCHIVRDSDS | 2.35
SLHLNSQVKKTTTRWCHIVRDSDS | 2.17
SCHLNSQVKKTTTRWCHIVRDSDS | 2.12

Variant | protein stability index
STHLNSQVKKTTTRWCHIVRDSDS | 2.15
SRHLNSQVKWTTTRWCHIVRDSDS | 1.97
SRHLNSQVKSTTTRWCHIVRDSDS | 2.87
SRHLNSQVKRTTTRWCHIVRDSDS | 1.8
SRHLNSQVKYTTTRWCHIVRDSDS | 1.69
SRHLNSQVKFTTTRWCHIVRDSDS | 1.78
SRHLNSQVKTTTTRWCHIVRDSDS | 1.98
SRHLNSQVKDTTTRWCHIVRDSDS | 2.56
SRHLNSQVKNTTTRWCHIVRDSDS | 2.72
SRHLNSQVKLTTTRWCHIVRDSDS | 1.8
SRHLNSQVKCTTTRWCHIVRDSDS | 2.11
SRHLNSQVKVTTTRWCHIVRDSDS | 2.71
SRHLNSQVKHTTTRWCHIVRDSDS | 2.29
SRHLNSQVKPTTTRWCHIVRDSDS | 2.28
SRHLNSQVKETTTRWCHIVRDSDS | 2.63
SRHLNSQVKITTTRWCHIVRDSDS | 1.61
SRHLNSQVKATTTRWCHIVRDSDS | 2.76
SRHLNSQVKGTTTRWCHIVRDSDS | 2.55
SRHLNSQVKMTTTRWCHIVRDSDS | 2.37
SRHLNSQVKQTTTRWCHIVRDSDS | 2.19
